According to PMC7251975 (Biochemistry, 2016):

Key:
[1] = target: rSTEAP1 (Six Transmembrane Epithelial Antigen of Prostate 1) (Oryctolagus cuniculus, UniProt G1SWI4); assay: fluorescence titration; type: binding
[2] = target: rabbit STEAP1 (Six Transmembrane Epithelial Antigen of Prostate member 1) with residues 2-42 truncated (rabbit); assay: SEC-MALS
[3] = target: rabbit STEAP1 (Six Transmembrane Epithelial Antigen of Prostate member 1) with residues 2-42 truncated (rabbit); assay: SEC

rSTEAP1 (Six Transmembrane Epithelial Antigen of Prostate 1), sequence (G1SWI4 43-352): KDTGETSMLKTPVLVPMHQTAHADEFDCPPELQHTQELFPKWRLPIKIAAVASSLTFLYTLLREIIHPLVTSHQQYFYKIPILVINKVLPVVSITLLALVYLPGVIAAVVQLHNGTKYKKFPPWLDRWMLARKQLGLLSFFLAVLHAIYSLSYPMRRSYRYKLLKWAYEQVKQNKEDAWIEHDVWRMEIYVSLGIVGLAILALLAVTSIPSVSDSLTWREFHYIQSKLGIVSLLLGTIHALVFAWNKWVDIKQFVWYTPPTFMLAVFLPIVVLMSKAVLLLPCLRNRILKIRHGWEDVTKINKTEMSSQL

Compound | Kd [1] | stoichiometry N [2] | stoichiometry N [3]
Cc1cc2nc3c(=O)[nH]c(=O)nc-3n(C[C@H](O)[C@H](O)[C@H](O)COP(=O)(O)OP(=O)(O)OC[C@H]3O[C@@H](n4cnc5c(N)ncnc54)[C@H](O)[C@@H]3O)c2cc1C [FAD] | 32.3 ± 1.3 µM |  | 
rabbit STEAP1 (Six Transmembrane Epithelial Antigen of Prostate member 1) with residues 2-42 truncated (domain or fragment) |  | 3 | 3
